Results: patent EP0651055A2 (priority 1993, dated 1995)

Key:
[1] = system: CC(=O)SCCC(C)(C)C; experiment: purified protein, by the assay type; conditions: sodium-phosphate buffer pH 8, 27°C
[2] = system: CC(=O)SCC[N+](C)(C)C; experiment: purified protein, by the assay type; conditions: sodium-phosphate buffer pH 8, 27°C

## recombinant HuAChE mutant Phe338Ala (Homo sapiens; F369A)
[1]; other: Phe338Ala
  Km: 300 ± 70 µM
[2]; other: Phe338Ala
  Km: 240 ± 20 µM

## recombinant HuAChE mutant Glu450Ala (Homo sapiens; E481A)
[1]; other: Glu450Ala
  Km: 200 ± 40 µM
[2]; other: Glu450Ala
  Km: 350 ± 40 µM

## recombinant HuAChE mutant Glu202Gln (Homo sapiens; E233Q)
[1]; other: Glu202Gln
  Km: 230 ± 30 µM
[2]; other: Glu202Gln
  Km: 350 ± 40 µM

## recombinant HuAChE mutant Tyr337Ala (Homo sapiens; Y368A)
[1]; other: Tyr337Ala
  Km: 200 ± 30 µM
[2]; other: Tyr337Ala
  Km: 100 ± 10 µM
